Results published in patent US12251377B2, “Anticoagulant compositions and uses thereof” (University of Rochester, priority 2019, dated 2025).

Tests used:
[1] = cited from earlier work
[2] = system: coagulation of human blood; test: Cardiopulmonary bypass circuit simulation (arterio-venous loop); type: biochemical; settings: whole duration of the bypass circuit experiment, 37° C.
Description: (§1) In the examples below, studies were carried out to examine effects of dabigatran on coagulation of human blood. The studies were approved by the Institutional Review Board (University of Rochester RSRB, Rochester, NY) and informed consent was obtained from all subjects. Six healthy non-pregnant donors between 18-70 years old were recruited for the study. Subjects were excluded from the recent infections, disorders of immune system, hematological disorders including prior history of clotting issues, malignancies. Current medications and herbal supplements were recorded. Standard phlebotomy procedures performed by trained personal were used to collect no more than 250 ml of whole blood in two months. The collected blood was anticoagulated with 0.109 M Na citrate and tested within four hours. Dabigatran was purchased from CLEARSYNTH (Ontario, Canada). The study was initiated in three steps: Effect of high-dose Dabigatran on coagulation of human blood in-vitro; Evaluation of the anticoagulant effect of Dabigatran in the Chandler Loop System; and Anticoagulation effect of Dabigatran in the Cardiopulmonary bypass circuit simulation. […]

[3] = system: coagulation of human blood; test: Thromboelastography, TEG 5000 rapid TEG test, clotting/reactive time (R); type: biochemical; settings: human blood in vitro
Description: In the examples below, studies were carried out to examine effects of dabigatran on coagulation of human blood. The studies were approved by the Institutional Review Board (University of Rochester RSRB, Rochester, NY) and informed consent was obtained from all subjects. Six healthy non-pregnant donors between 18-70 years old were recruited for the study. Subjects were excluded from the recent infections, disorders of immune system, hematological disorders including prior history of clotting issues, malignancies. Current medications and herbal supplements were recorded. Standard phlebotomy procedures performed by trained personal were used to collect no more than 250 ml of whole blood in two months. […]
Methods: Dabigatran (CLEARSYNTH, Catalog No. CS-O-03403; CAS number 211914-51-1) was initially dissolved in 0.1M HCL to 16.6 mg/ml, followed by diluting to 240 μg/ml, using 50% DMSO. […] TEG 5000 (rapid TEG test) and ROTEM (ex-tem test) were used to measure anticoagulation and the corresponding reactive time (R) and coagulation time (CT) were recorded.
(§2) Methods: Dabigatran was initially dissolved in 0.1 M HCL, followed by diluting 1:1 with DMSO/H2O to prepare four stock solutions: […]. […] Blood clotting was monitored for 120 minutes. […]
Each of the dabibatran-containing blood sample described above was examined for clotting time R measured by TEG in the manner described above.

[4] = system: coagulation of human blood; test: Chandler Loop System, clot formation in circulating blood; type: biochemical; settings: Idarucizumab added after 2 hours of circulation; immediate clotting of the blood in the loop
Description: as §1, §2

plasma levels of Dabigatran during the experimental procedure (Mass Spectrometry) [2]	Molecule	normal concentrations found in patients [1] [ng/mL]	reversal of the anticoagulation effect of Dabigatran ([3]; 125 μg/ml Idarucizumab)	Idarucizumab concentration required to reverse the highest concentrations of Dabigatran ([3]; highest Dabigatran concentrations)	reversal of the anticoagulation action of Dabigatran in the Chandler loop [4]
remain stable	[H]/N=C(/N)c1ccc(NCc2nc3cc(C(=O)N(CCC(=O)O)c4ccccn4)ccc3n2C)cc1 [Dabigatran]	180			
	Idarucizumab: anti-dabigatran antibody, reversal agent (antibody, chains of the INN, looked up, V domains shown, Fab, anti-dabigatran antibody, reversal agent) VH: QVQLQESGPGLVKPSETLSLTCTVSGFSLTSYIVDWIRQPPGKGLEWIGVIWAGGSTGYNSALRSRVSITKDTSKNQFSLKLSSVTAADTAVYYCASAAYYSYYNYDGFAYWGQGTLVTVSS VL: DVVMTQSPLSLPVTLGQPASISCKSSQSLLYTDGKTYLYWFLQRPGQSPRRLIYLVSKLDSGVPDRFSGSGSGTDFTLKISRVEAEDVGVYYCLQSTHFPHTFGGGTKVEIK		successfully reversed	2-4 times normal plasma concentrations	effectively reversed
